The results in this text go back to PMC4364448.

This assay concerns the target Arp2/3 complex (bovine) (UniProt A7MB62). Nature of the assay: ITC. On the technique in general: In ITC the heat of successive injections is recorded.

As to “Human GMFγ (from UniProt O60234 1-142) (natural protein)”, the Kd (as a rule, the equilibrium constant for the complex coming apart) was determined as 0.2 µM.
For the substance WCA_(WAVE) (domain or fragment), the fold lower affinity than N-WASP WCA, site-1 turned out to be 2 fold; the fold lower affinity than N-WASP WCA, site-2 is 6 fold; the stoichiometry N (commonly a count of units in the complex or per binding partner) is 2.
Regarding WCA_(N-WASP) (domain or fragment), the Kd site-1 was determined as 0.02 µM, the Kd site-2 came to 0.182 µM and the stoichiometry N is 2.
